Assays:
Test in all cases: negative-staining electron microscopy
[1] = molecular target: F97L-HBc capsids (Hepatitis B virus (genotype D; strain ayw)) (UniProt P03146)
[2] = molecular target: L60V-HBc capsids (Hepatitis B virus (genotype D; strain ayw)) (UniProt P03146)
[3] = molecular target: P5T-HBc capsids (Hepatitis B virus (genotype D; strain ayw)) (UniProt P03146)

F97L-HBc capsids (from UniProt P03146 1-183) (natural protein)
stoichiometry N (subunits per capsid) [1]: 240

L60V-HBc capsids (from UniProt P03146 1-183) (natural protein)
stoichiometry N (subunits per capsid) [2]: 240

P5T-HBc capsids (from UniProt P03146 1-183) (natural protein)
stoichiometry N (subunits per capsid) [3]: 240

Reference: PMC8145704, “Conformational Plasticity of Hepatitis B Core Protein Spikes Promotes Peptide Binding Independent of the Secretion Phenotype” (Microorganisms, 2021)
